The source of these data is patent publication US10485196, “Rice plants with altered seed phenotype and quality” (THE INSTITUTE OF GENETICS AND DEVELOPMENTAL BIOLOGY CHINESE …).

Holding throughout (settings): label: biotin 3'
For series [1], the target named is T1, OsSPL16 (GW8) (Oryza sativa, UniProt Q6YZE8 Q6YZE8:1-455).
T1 sequence: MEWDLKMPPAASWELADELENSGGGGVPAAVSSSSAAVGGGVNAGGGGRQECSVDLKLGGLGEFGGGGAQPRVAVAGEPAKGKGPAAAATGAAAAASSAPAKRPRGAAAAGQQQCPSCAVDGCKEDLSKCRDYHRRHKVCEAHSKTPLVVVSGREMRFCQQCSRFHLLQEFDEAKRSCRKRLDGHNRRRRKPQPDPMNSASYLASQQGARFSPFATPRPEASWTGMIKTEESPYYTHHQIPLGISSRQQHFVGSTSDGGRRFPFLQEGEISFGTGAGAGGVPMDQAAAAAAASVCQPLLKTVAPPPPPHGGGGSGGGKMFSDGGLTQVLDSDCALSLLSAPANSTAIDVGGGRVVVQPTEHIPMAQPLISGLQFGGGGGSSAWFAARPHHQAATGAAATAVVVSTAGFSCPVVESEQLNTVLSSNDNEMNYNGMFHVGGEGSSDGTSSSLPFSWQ
Description: EMSA; competed by 10-50x cold GTAC probe; probe assignment from Table 9. From the text: FIG. 4. OsSPL16 negatively regulates GW7 expression. (a) Effect of OsSPL16/GW8 on transcript abundance of GW7 in young panicles. Transcription relative to the level of NIL-GW8^HJX74 plants set to be one. Data shown as mean±s.e.m (n=3). (b) Grain size and shape formed by transgenic NIL-gw8 Basmati plants. Scale bar: 2 mm. (c) ChIP assays. The diagram depicts the putative GW7 promoter and regions of it used for ChIP-PCR analysis of extracts from young panicle of transgenic NIL-gw8 Basmati plants carrying pActin::myc-OsSPL16 construct. Data shown as mean±s.e.m (n=3). (d) EMSA assays. The GTAC motifs-containing DNA fragment (F8 shown in c) of the GW7 promoter was incubated with GST-OsSPL16 as indicated. Competition for OsSPL16 binding was performed with 10×, 20×, 30× and 50× cold probes containing the GTAC motifs, respectively. (e) OsSPL16 represses transcription of the GW7 gene promoter. Relative luciferase activity was monitored in rice protoplasts co-transfected with the different effector and reporter constructs. Mock: co-transfected with reporter constructs and an empty effector construct; negative control: co-transfected with effector construct and an empty reporter construct set to be one. Data shown as mean±s.e.m (n=3). A Student's t-test was used to generate the P values. (f) An 11 bp deletion and 18 bp insertion found in close proximity to the GTAC motifs in the GW7TFA allele. […]
On the technique in general: In EMSA bound probe runs differently from free probe, usually more slowly.

The target of series [2] is T1, OsSPL16 (GW8). The description is as above. This is another data set of the same source.
The target in series [3] is T1, OsSPL16 (GW8). The series is described as follows: EMSA; mutation of GTAC abolished affinity; probe assignment from Table 9. The method, then: FIG. 10 The DNA fragment (F8) containing two […] motifs (a) or two mutated ATAC motifs (b) was incubated with GST-OsSPL16 as indicated. Competition for OsSPL16 binding was performed with 10×, 20×, 30× and 50× cold probes containing the GTAC motif, respectively.

B1: GW7 promoter F8 fragment probe (HJX1) (dsDNA)
DNA 1: CCATTGACACACCATACCACATCTCATCTCACGCGTCCCAAAGAAAGTGATAGTGTACGTACC
DNA 2: GGTACGTACACTATCACTTTCTTTGGGACGCGTGAGATGAGATGTGGTATGGTGTGTCAATGG
With B1, the binding result in series [1] is given as “binds”.

B2: GTAC motif probe (T) (dsDNA)
DNA 1: TAGTGTACGTACCTCTTAGTGTACGTACCTCTTAGTGTACGTACCTCT
DNA 2: AGAGGTACGTACACTAAGAGGTACGTACACTAAGAGGTACGTACACTA
With B2, the binding result in series [2] is “binds”.

B3: mutated GTAC motif probe (Z) (dsDNA)
DNA 1: TAGTGTGCGTGCCTCTTAGTGTGCGTGCCTCTTAGTGTGCGTGCCTCT
DNA 2: AGAGGCACGCACACTAAGAGGCACGCACACTAAGAGGCACGCACACTA
Take B3: the binding result in series [3] was “no binding”.
